According to article PMC6303335:

Molecular target: VACV B18
Test: SPR

Substance human IFNα-2b has a koff of 0.000225 s⁻¹.
